# Laboratory results from patent US20200164029A1 (ACCELERON PHARMA, published 2020).
# T1: hENG(360-581)-hFc (human, UniProt P17813 360-581)
# T1 construct: not shown: human IgG1 Fc domain
# T1 sequence: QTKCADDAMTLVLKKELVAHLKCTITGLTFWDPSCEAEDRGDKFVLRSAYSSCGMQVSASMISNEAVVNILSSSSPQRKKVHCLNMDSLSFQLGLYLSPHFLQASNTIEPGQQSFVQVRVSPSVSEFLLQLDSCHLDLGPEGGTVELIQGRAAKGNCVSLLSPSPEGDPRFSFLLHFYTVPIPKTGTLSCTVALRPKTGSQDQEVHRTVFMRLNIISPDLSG
# T2: hENG(458-581)-hFc (human, UniProt P17813 458-581)
# T2 construct: Expressed in COS cells, not purified; not shown: human IgG1 Fc domain
# T2 sequence: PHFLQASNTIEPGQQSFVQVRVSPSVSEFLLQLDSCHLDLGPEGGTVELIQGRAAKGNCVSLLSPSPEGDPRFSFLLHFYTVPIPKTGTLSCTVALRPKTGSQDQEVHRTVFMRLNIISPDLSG
# T3: hENG(26-581)-hFc (human, UniProt P17813 26-581)
# T3 construct: not shown: human IgG1 Fc domain
# T3 sequence: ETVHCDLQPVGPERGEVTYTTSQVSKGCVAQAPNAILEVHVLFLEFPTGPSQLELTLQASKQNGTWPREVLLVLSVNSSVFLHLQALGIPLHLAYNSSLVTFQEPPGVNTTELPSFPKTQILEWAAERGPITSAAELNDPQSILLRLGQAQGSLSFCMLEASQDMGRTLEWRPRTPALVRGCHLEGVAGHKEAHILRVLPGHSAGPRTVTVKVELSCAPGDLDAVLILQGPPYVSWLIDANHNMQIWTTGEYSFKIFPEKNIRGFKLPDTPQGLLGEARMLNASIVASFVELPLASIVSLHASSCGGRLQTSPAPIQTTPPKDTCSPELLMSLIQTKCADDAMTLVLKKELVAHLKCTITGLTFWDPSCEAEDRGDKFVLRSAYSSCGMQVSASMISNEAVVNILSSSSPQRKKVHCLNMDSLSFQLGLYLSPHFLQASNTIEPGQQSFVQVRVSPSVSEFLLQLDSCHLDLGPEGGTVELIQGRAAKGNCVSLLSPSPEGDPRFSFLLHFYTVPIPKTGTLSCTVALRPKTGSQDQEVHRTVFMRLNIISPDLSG
# T4: hENG(26-586) (R&D Systems, catalog #1097-EN) (human, UniProt P17813 26-586)
# T4 construct: also called soluble human ENG extracellular domain
# T4 sequence: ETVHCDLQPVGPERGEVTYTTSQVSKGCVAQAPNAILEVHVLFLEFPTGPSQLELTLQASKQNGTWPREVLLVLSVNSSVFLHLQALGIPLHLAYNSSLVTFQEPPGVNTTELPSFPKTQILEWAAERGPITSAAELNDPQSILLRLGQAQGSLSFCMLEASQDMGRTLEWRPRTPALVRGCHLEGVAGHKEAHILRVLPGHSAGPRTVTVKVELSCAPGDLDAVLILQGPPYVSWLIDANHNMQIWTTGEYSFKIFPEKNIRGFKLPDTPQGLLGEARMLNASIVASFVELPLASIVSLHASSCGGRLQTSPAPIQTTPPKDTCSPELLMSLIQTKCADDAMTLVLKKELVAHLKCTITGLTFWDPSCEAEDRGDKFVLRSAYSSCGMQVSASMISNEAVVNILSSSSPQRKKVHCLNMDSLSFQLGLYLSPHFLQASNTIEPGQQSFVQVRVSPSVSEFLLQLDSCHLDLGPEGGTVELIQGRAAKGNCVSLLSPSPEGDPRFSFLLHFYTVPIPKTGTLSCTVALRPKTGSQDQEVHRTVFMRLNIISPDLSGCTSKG
# B1: human BMP-9 (ligand, UniProt Q9UK05 320-429, looked up)
# chain: SAGAGSHCQKTSLRVNFEDIGWDSWIIAPKEYEAYECKGGCFFPLADDVTPTKHAIVQTLVHLKFPTKVGKACCVPTKLSPISVLYKDDMGVPTLKYHYEGMSVAECGCR
# notes: also called hBMP-9
# B2: human BMP-10 (ligand, UniProt O95393 317-424, looked up)
# chain: NAKGNYCKRTPLYIDFKEIGWDSWIIAPPGYEAYECRGVCNYPLAEHLTPTKHAIIQALVHLKNSQKASKACCVPTKLEPISILYLDKGVVTYKFKYEGMAVSECGCR
# notes: also called hBMP-10
# Tests used:
# hENG(360-581)-hFc = target: T1, hENG(360-581)-hFc; assay: SPR, captured hENG-hFc, soluble ligand
# hENG(458-581)-hFc = target: T2, hENG(458-581)-hFc; assay: SPR, captured hENG-hFc, soluble ligand
# hENG(26-581)-hFc = target: T3, hENG(26-581)-hFc; assay: SPR, captured hENG-hFc, ligand at 100 nM; ++++ = KD < 1 nM
# [1] = target: T4, hENG(26-586) (R&D Systems, catalog …); assay: SPR competition in solution: 0-50 nM hENG(26-586) premixed with 10 nM BMP-9, binding of BMP-9 to captured ALK1-hFc read out
# Text: (§1) BMP-9 and BMP-10 are high-affinity ligands at the type I receptor ALK1 (activin receptor-like kinase 1). […] Similar results were obtained with BMP-10 (FIG. 21).
# [2] = target: T4, hENG(26-586) (R&D Systems, catalog …); assay: SPR competition in solution: 0-50 nM hENG(26-586) premixed with 10 nM BMP-10, binding of BMP-10 to captured ALK1-hFc read out
# Text: as §1
Binder,binding result (hENG(360-581)-hFc),binding result (hENG(458-581)-hFc),binding result (hENG(26-581)-hFc),binding result [1],binding result [2]
B1,no binding (tested: 100 nM),no binding (tested: 100 nM),binds,binds,–
B2,no binding (tested: 100 nM),no binding (tested: 100 nM),binds,–,binds
